B1: Gin20TALE+0 (dsDNA)
DNA 1: AGAAGGTATTTATATCCAAAACCATGGTTTACAGTATAAATACCTTCT
DNA 2: AGAAGGTATTTATACTGTAAACCATGGTTTTGGATATAAATACCTTCT
B2: Gin18TALE+0 (dsDNA)
DNA 1: AGAAGGTATTTATACCAAAACCATGGTTTACATATAAATACCTTCT
DNA 2: AGAAGGTATTTATATGTAAACCATGGTTTTGGTATAAATACCTTCT

Assays:
Assay in all cases: cell_activity; E. coli
Details in all cases: tags: 6-His
[1] = biological target: T1, sN-TALER IV-3 (synthetic)
T1 chain: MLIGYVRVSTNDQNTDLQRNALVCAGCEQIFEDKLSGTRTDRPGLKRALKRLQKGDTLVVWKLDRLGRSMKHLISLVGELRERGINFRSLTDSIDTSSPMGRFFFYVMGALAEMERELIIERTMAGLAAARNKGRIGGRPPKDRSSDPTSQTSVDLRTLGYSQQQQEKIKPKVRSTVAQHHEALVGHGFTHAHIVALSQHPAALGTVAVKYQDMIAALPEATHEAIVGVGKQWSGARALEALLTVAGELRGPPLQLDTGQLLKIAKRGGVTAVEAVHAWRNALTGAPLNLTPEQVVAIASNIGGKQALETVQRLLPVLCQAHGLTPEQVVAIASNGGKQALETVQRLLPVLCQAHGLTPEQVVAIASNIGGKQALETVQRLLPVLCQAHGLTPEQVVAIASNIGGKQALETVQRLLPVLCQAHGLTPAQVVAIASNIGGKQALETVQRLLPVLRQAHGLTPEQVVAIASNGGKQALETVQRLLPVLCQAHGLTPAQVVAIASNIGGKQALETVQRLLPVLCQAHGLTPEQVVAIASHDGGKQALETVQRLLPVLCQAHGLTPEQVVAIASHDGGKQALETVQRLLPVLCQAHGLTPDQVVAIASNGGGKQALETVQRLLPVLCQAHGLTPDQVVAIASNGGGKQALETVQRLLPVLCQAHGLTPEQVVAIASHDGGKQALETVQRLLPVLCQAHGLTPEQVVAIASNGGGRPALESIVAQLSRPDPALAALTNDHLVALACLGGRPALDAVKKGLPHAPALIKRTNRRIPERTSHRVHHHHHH
Experimental: (§1) To test for recombination, E. coli DH5alpha cells were co-transformed with different combinations of TALER expression construct and TALER reporter construct pairs (Tables 6 and 7). The N-TALER expression and reporter constructs were in an approximate 1:1 mass ratio during the transformation. The co-transformed bacteria were plated on media with chloramphenicol, kanamycin, and X-gal then incubated at 37° C. for 18 to 36 hours. Control samples consisted of transformations using the reporter construct alone. Control transformants were similarly plated. The bacterial transformation protocol was either heat shock or electroporation per standard molecular biology techniques.

[2] = biological target: T2, sN-TALER IV-3.2 (synthetic)
T2 chain: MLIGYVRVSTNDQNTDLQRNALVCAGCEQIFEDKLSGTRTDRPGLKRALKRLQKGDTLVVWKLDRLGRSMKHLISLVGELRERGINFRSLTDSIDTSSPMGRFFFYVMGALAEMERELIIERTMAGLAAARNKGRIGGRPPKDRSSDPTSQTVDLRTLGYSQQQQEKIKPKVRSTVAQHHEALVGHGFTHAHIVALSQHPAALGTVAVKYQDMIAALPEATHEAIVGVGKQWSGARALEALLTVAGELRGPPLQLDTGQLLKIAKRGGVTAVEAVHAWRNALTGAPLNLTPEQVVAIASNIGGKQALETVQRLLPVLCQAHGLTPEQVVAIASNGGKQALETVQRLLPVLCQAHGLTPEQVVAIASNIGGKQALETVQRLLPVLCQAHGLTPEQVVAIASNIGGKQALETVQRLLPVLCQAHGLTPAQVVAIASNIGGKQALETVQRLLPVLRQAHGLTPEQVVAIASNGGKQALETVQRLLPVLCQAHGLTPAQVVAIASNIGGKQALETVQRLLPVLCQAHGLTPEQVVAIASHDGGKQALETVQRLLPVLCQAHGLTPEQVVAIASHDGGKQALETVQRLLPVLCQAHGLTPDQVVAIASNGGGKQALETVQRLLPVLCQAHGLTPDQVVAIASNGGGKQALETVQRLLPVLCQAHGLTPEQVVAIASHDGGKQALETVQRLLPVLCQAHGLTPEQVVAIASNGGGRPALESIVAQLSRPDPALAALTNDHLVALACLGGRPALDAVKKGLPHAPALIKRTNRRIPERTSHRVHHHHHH
Experimental: as §1

[3] = biological target: T3, sN-TALER IV-2 (GinH106Y-TALE13) (synthetic)
T3 chain: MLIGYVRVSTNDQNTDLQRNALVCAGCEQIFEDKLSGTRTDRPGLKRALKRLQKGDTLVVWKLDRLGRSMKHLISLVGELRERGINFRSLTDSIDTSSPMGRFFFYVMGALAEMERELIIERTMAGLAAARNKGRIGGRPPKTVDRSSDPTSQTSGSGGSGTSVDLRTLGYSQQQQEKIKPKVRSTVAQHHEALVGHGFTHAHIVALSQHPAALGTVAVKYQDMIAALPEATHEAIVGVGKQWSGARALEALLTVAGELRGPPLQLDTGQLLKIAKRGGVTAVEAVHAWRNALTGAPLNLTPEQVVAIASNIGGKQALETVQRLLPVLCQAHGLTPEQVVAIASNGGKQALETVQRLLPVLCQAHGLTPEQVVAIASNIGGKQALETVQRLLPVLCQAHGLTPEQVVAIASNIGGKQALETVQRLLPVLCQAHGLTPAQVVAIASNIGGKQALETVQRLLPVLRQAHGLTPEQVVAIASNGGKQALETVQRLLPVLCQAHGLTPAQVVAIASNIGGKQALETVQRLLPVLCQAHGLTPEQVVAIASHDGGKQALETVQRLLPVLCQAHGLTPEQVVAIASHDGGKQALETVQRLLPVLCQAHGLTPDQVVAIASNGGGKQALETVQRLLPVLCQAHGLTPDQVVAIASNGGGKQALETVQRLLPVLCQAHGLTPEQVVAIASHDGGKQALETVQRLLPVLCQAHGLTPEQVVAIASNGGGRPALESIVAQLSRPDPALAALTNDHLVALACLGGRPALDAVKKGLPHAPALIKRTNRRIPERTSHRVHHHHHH
Experimental: as §1

Binder	activity [1]	activity [2]	activity [3]
B1	1 score	1 score	1 score
B2	2 score	3 score	1 score
